In patent publication US20110118131A1 (published 2011):
Substitutions are numbered along the chain they refer to. Names and notes keep the numbering of the source.

B1: XPA23 light chain R31G (Fab, V domains shown)
VH: EVQLLESGGGLVQPGGSLRLSCAASGFTFSKYFMFWVRQAPGKGLEWVSVISPSGGMTRYADSVKGRFTISRDNSKNTLYLQMNSLRAEDTAVYYCARVGYGGNSDYWGQGTLVTVSS
VL: DIQMTQSPSSVSASVGDRLTIICRASQDINGWLAWYQQTPGNAPKLLIHSATSLQSGVPSRFSGSGSGTDFTLTINSLQPEDFATYYCQQADSFPLTFGGGTKVEIK
B2: XPA23 light chain S50V (Fab, V domains shown)
VH: B1 VH
VL: B1 VL with G31R, S50V
B3: XPA23 light chain S50Q (Fab, V domains shown)
VH: B1 VH
VL: B1 VL with G31R, S50Q
B4: XPA23 light chain S50K (Fab, V domains shown)
VH: B1 VH
VL: B1 VL with G31R, S50K
B5: XPA23 light chain R31V (Fab, V domains shown)
VH: B1 VH
VL: B1 VL with G31V
B6: XPA23 light chain S50F (Fab, V domains shown)
VH: B1 VH
VL: B1 VL with G31R, S50F
B7: XPA23 light chain R31N (Fab, V domains shown)
VH: B1 VH
VL: B1 VL with G31N
B8: XPA23 light chain S50H (Fab, V domains shown)
VH: B1 VH
VL: B1 VL with G31R, S50H
B9: XPA23 light chain R31Q (Fab, V domains shown)
VH: B1 VH
VL: B1 VL with G31Q
B10: XPA23 light chain S50D (Fab, V domains shown)
VH: B1 VH
VL: B1 VL with G31R, S50D
B11: XPA23 light chain R31P (Fab, V domains shown)
VH: B1 VH
VL: B1 VL with G31P
B12: XPA23 light chain R31K (Fab, V domains shown)
VH: B1 VH
VL: B1 VL with G31K
B13: XPA23 light chain S50Y (Fab, V domains shown)
VH: B1 VH
VL: B1 VL with G31R, S50Y
B14: XPA23 light chain R31L (Fab, V domains shown)
VH: B1 VH
VL: B1 VL with G31L
B15: XPA23 light chain S50P (Fab, V domains shown)
VH: B1 VH
VL: B1 VL with G31R, S50P
B16: XPA23 light chain S50I (Fab, V domains shown)
VH: B1 VH
VL: B1 VL with G31R, S50I
B17: XPA23 light chain S50E (Fab, V domains shown)
VH: B1 VH
VL: B1 VL with G31R, S50E
B18: XPA23 light chain S50R (Fab, V domains shown)
VH: B1 VH
VL: B1 VL with G31R, S50R
B19: XPA23 light chain R31T (Fab, V domains shown)
VH: B1 VH
VL: B1 VL with G31T
B20: XPA23 light chain S50W (Fab, V domains shown)
VH: B1 VH
VL: B1 VL with G31R, S50W
B21: XPA23 light chain S50T (Fab, V domains shown)
VH: B1 VH
VL: B1 VL with G31R, S50T
B22: XPA23 light chain S50L (Fab, V domains shown)
VH: B1 VH
VL: B1 VL with G31R, S50L
B23: XPA23 light chain R31H (Fab, V domains shown)
VH: B1 VH
VL: B1 VL with G31H
B24: XPA23 light chain R31Y (Fab, V domains shown)
VH: B1 VH
VL: B1 VL with G31Y
B25: XPA23 light chain S50A (Fab, V domains shown)
VH: B1 VH
VL: B1 VL with G31R, S50A
B26: XPA23 light chain R31W (Fab, V domains shown)
VH: B1 VH
VL: B1 VL with G31W
B27: XPA23 light chain S50G (Fab, V domains shown)
VH: B1 VH
VL: B1 VL with G31R, S50G
B28: XPA23 light chain S50N (Fab, V domains shown)
VH: B1 VH
VL: B1 VL with G31R, S50N
B29: XPA23 light chain R31I (Fab, V domains shown)
VH: B1 VH
VL: B1 VL with G31I
B30: XPA23 light chain R31S (Fab, V domains shown)
VH: B1 VH
VL: B1 VL with G31S

These binders were tested against T1, IL-1β (UniProt P01584 117-269) (assay: Biacore, periplasmic extract).
T1 construct: Antigen immobilised on the Biacore chip

| Binder | fold difference in affinity vs original [fold] | binding result |
| --- | --- | --- |
| B1 | 0.92 | – |
| B2 | 0.21 | – |
| B3 | 0.21 | – |
| B4 | 0.1 | – |
| B5 | 0.44 | – |
| B6 | – | no binding |
| B7 | 0.38 | – |
| B8 | 0.05 | – |
| B9 | 0.27 | – |
| B10 | – | no binding |
| B11 | – | no binding |
| B12 | 1.18 | – |
| B13 | 0.05 | – |
| B14 | 0.51 | – |
| B15 | – | no binding |
| B16 | 0.25 | – |
| B17 | 0.02 | – |
| B18 | – | no binding |
| B19 | 0.24 | – |
| B20 | 0.02 | – |
| B21 | 0.87 | – |
| B22 | 0.49 | – |
| B23 | – | no binding |
| B24 | – | no binding |
| B25 | 0.13 | – |
| B26 | 0.43 | – |
| B27 | 0.14 | – |
| B28 | 0.25 | – |
| B29 | 0.68 | – |
| B30 | 0.44 | – |
